Results on 22 sequences are retold here after the DeepSol protein solubility set.

A short description of the series: soluble on expression in E. coli; label from the status in PepcDB or PDB records.
For “MKIIGKIGKGKVEVNEKTKFSILLNNVAKKADIAEGKRAVEDIIRVIYRHQPISTKKIAQKTRLPLPIVAKVRTILEREKILKRTERGAELTDLGKEFAENFLKLKYKKSLTCKTCNGRGIVLDEFFEDILNKVRVWAKRRPLVDTTIDQSFATPETSTYRAALMYERGDLEGKRILFVGDDDLTSLPTALTNMAEEIAVVDIDERILKLIEKFSQKEGVKIKTIKHDLRNPLPQDLKERFDVISTDPPYTVDGLKLFLSRGIEALGKEGIAYLSYSHKPIDEWLSIQKAITNMGFVISELIPNFNYYEGSEIIANTTFIARLVGKNLKINIGDTEKIYTGLVKPVIRYYKCLKCGKIHKVGEEVKKVEDLVCECGGKKFKMIKREKLKNELEHHHHHH”, the “soluble on expression in E. coli” value is “soluble”.

Turning to “MKIIYCITKADNGGAQTHLIQLANHFCVHNDVYVIVGNHGPMIEQLDARVNVIIIEHLVGPIDFKQDILAVKVLAQLFSKIKPDVIHLHSSKAGTVGRIAKFISKSKDTRIVFTAHGWAFTEGVKPAKKFLYLVIEKLMSLITDSIICVSDFDKQLALKYRFNRLKLTTIHNGIADVPAVKQTLKSQSHNNIGEVVGMLPNKQDLQINAPTKHQFVMIARFAYPKLPQNLIAAIEILKLHNSNHAHFTFIGDGPTLNDCQQQVVQAGLENDVTFLGNVINASHLLSQYDTFILISKHEGLPISIIEAMATGLPVIASHVGGISELVADNGICMMNNQPETIAKVLEKYLIDSDYIKMSNQSRKRYLECFTEEKMIKEVEDVYNGKSTQ”, the “soluble on expression in E. coli” value was “not soluble”.

On to “MKIKRLSLWHVPLTSHTAYYMAEGKTCDTVETAVLCIETDTGLTGWGEVCPIPHYLPAYARGVGPALSELAPVILSADPIGPEALMAKADAYLPDHRYAKSALDIALWDLTGQAAGLPLHALLGGQRQADLPLYHSITCIEPDEMARIAIEAQAQGMTQFQAKLGASGDWQTDVERLIKVREAVGSGPILYGDWNCGSTSLDATRTGRAVAHLDIMLEQPCATIEDCARVHSATGLPMKLDELVHDTASLLKAHQLGLMDVAALKLSKFGGLSATRRARDLCLHLGAKMCVEDTWGSDITTAAVLHLGAATDPARVLNVCDLSGYVSPRLAQDAPTRAQGRIAPPQAAGLGIAVDKTALGQPELILD”, for which the “soluble on expression in E. coli” value is given as “soluble”.

Consider “MKIKTLLSIITAMALLILGTEVATAQSTGVPTIDSGSPESNQPLNDTMITTKVKAELAIAEGIKSGDISVETVNGVVILTGTQPNEMLIKKAEEVAKSVKDVKQVDISGLTVNTTTAD”, for which the “soluble on expression in E. coli” value is “not soluble”.

“MKIKWLGHACFLLTSDNGIRVVTDPYDNTVGYKVEKIDAEIVSTSHDHYDHNYVDMVSENAKHVKSEGKTNIDGIEITGVTSFHDDCKGAKRGKNVIFKFKIDGIDVCHLGDLGHVLSDSQVREIGNVDVLLVPVGGVYTIDYKGAVEVMKLVNPKITIPMHYKTPALSFDVDGVENFLSATGGKHIGKQEIELKKDEIENWPKVVALDYQ”: the “soluble on expression in E. coli” value is listed as “soluble”.

As to “MKILKDTVLFGLFASYADGVRNGEEKLSAAYDDFATLLATLPTDGTNICAQLRRLFYTKIELRGIQETVSTNGMERHVLFDVYIGKALALLDAEEQMMKEVLRHGGTEAMGLKEEAVCRNGKKGSVTLTWNGTDSDLIELVAALMAAGVIGTAEGRELKVVDVIRVFEEVFHLKINALYTKRGKVFDRCTDTTPFIDSLRRSYNRMLDARLA”, the “soluble on expression in E. coli” value was “not soluble”.

With “MKILVAVKQTAALEEDFEIREDGMDVDEDFMMYDLNEWDDFSLEEAMKIKESSDTDVEVVVVSVGPDRVDESLRKCLAKGADRAVRVWDDAAEGSDAIVVGRILTEVIKKEAPDMVFAGVQSSDQAYASTGISVASYLNWPHAAVVADLQYKPGDNKAVIRRELEGGMLQEVEINCPAVLTIQLGINKPRYASLRGIKQAATKPIEEVSLADIGLSANDVGAAQSMSRVRRMYIPEKGRATMIEGTISEQAAKIIQIINEFKGA”, the “soluble on expression in E. coli” value is given as “soluble”.

As for “MKILVIGGPTAIGKSDLACCVAQKLNGEIISADSMAVYKFMDIGTAKPLECMKKVPHHLIDVVEPGGYFDAKIFEEMAKEKIEEIKRKGKVPIVVGGTYLYIQALLYGIDETPKPDWNLRNKLYEIARKKGNDYLYEKLKAIDPKYAKKIHKNDLRRIVRALEVFINTGKPFSSFHSWNKPKMDFVGIYLKRSPESLYKRIENRVYDMVKDGLLEEVKKLLEMGYENFLTSGQAIDYKEFVPCAKGEKSLEECIKEAIKNTKKQAKRQIRWFRKQGWHEIDLDKLSIEEACEEVVRIYKDANKTKLEHHHHHH”, the “soluble on expression in E. coli” value is recorded as “not soluble”.

In the case of “MKIMGFYSQVILPRLLDWSLSDPTLATYRQELLTDVTGEVLEIGFGTGLNLAYYPSHIHKITTVDVNPGMNTIAQKRIDDSGIKVQQLLLSGENLPMADNTFDSVVSTWTLCSIANVEQALQEVYRVLKPGGKFFFLEHGLSNKPNVQVWQNRLTPIQKVLADGCHLNRNIQQLVEQSFDHVELKRFTPENFPDLMAHFYKGCATKKSILEHHHHHH”, the “soluble on expression in E. coli” value was “soluble”.

As for “MKINNLVDLHCHILPAIDDGSPSLEASLELARQAVADGIRYILATPHHMDRHYLNHAGDVVAAVEAFQAELDVNDIPLTIFPGQEVHLNGQLMEKVDDLLSIDTGRHYLLLELPHEMVPSYLDEMIFQLSCEGITPVIAHPERNAQIIAEPQRLYKLAEDGVLAQVTATSLVGTFGEQVQRTAKEFVKCGLVQVVASDAHTLKNRGFAMTKAYQVLNEMDSKYPERFATNARDLLNGEQIEMGQIEIPRKQRKHWLF”, the “soluble on expression in E. coli” value is on record as “not soluble”.

In the case of “MKIQELKLFNGLTEDELQRSLVCSQSNIVEYEKDDYIFSQGERPRWIYMILSGEVLLEQINMAGRQTYAEYLGERQQFGVVDLFLKRKQYSYSARARSHVKLLKISSHFFYGTCENNCMHHSKILFNMMGVFAEEAEKKSKKIQLLTCGSLRQRIALYLLQNSGENKKVELMMNREELAASLNAARPSLSRELSQMQDEGIIKMEGRKSIKILDYSRLQEDLADVSD”, the “soluble on expression in E. coli” value is given as “not soluble”.

For the sequence “MKIRLLVSILCILFAGCALQQTNRALQPDQRWVTQTLPNGLTYHLYPDSEQEVSIRLYVHAGSMQETAQQAGYAHFIEHMAFNGTRHYQHNDVIRMFEQSGAQFGADFNALTGYDRTVYQLDLPNAQNIDKALLWFADIADGLAFDADEVEKEKGVILGEFRASRTENMSLEQQFYLHQIQGTSYADRDPLGSRELVQAATPDSLKAFYQQWYQPQLAELVITGNFTLEQGQQWVENYFSSWKKGSTEKPASIYHQALNNQDLVAPVTAGESPSLTLIFPQGSAAIKDYASQQEFWRDDVGEQLLHTRLVAAFNDAAQAITGIYATHYEIEGQRYTLISVGFAAEQREKVQALLLETLASMRDYGVTKNELDIILRGYREHLTFLQEDREAITPASHANQKVYSIVFDTPIQATLDYQASLSEFIASATPEMINRHIQQQLSQNPVWVVGVAATEDAQALNKALPQWRNDLAQPGNQPIDQQIDSPFTQQFTAGEVVKQLDINDDPQVTYWQLDNGIDVYYLRNIEAKDRVFVQYASSGGQFALPADLLPAAEIATAVQTRSGLDTLNGSQFDRYLRQKDIGFYSYIASTSHGFEANSKAQELPELLEILHLLSTQVKVSPDQLNSVKTEFTQNRSAYFDSPIGAFFRTVTNQSFIETSPYRIRTPEQIAQVTAQQIEQVHQRLFSEGRNNTLVIVGDIERSQITPMLRQYVASIPLSKGTLSPMTSQLIKPVAPRLELALNNENSTQYSLRLISETQPRTAKTVFIDDMLQRIATQRLLAEVREHQGLDYTPQVIPYVVDGDILNDWVLSALVDPKSEPQVAKVMHEVARELAQGVTQQELDVVKQKFLIDMKPLNKSPEQQAYFMLRYAIHHYGVETIYKVEELTKSITLDDINQRAQTLFGKDTMSQELIMTPKANPKG”, the “soluble on expression in E. coli” value is given as “not soluble”.

On to “MKITFIGGGNMAGAMIGGLIHHGSTPSHICAVETDAMRRQQLAEACGVTVTASIPDGIHGSEIVILAVKPQQLRAVANQAAQFLQNKLVISIAAGVRASDLSQWLNRHEFVIRAMPNTPALIGEGITGLYALPLVDSRQKEQATTILEAIGTVIWVNEEAQLDAVTALSGSGPAYVFYFLEAMQEAGTQLGLTADTAKQLAMQTFLGATHLAAQSNDTLATLRMKVTSQGGTTEQALLSMEQADIRGAFIRAMHAACDRSRQMGEIFGRTLEHHHHHH”, for which the “soluble on expression in E. coli” value is recorded as “soluble”.

Turning to “MKITHCKLKKEVQKEPLRSFVPEVTARSAADILGIHPDSAALFYRKIRTVANHRLALAADGVFEGPAGPGGSYFGGRRKGRRGRGAAGKAVVFGIPKRNGRAYTVAADNAEPETLPPAVKKKIMPDGIVYADSPGSRGKLDAGGFTRCRINRSKEFADRRNHINGIGDFWNQAKRALRKYNGIDRKPFPPFLRECEFRLNFGTPSRQLKILRDRCGILEHHHHHH”, the “soluble on expression in E. coli” value is recorded as “not soluble”.

In the case of “MKITLSKRIGLLAFLLPCALALSTTVHAETNKLVIESGDSAQSRQHAAMEKEQWNDTRNLRQKVNKRTEKEWDKADAAFDNRDKCEQSANINAYWEPNTLRCLDRRTGRVITPLEHHHHHH”, the “soluble on expression in E. coli” value was “not soluble”.

As to “MKIVEGVSLHLIKNQQFKTNHLTFRFSGDFNNKTVARRSLVAQMLVTANAKYPKVQEFREKLASLYGASLSTKISTKGLVHIVDIDIVFVKNTFTLEQENIVEQIITFLEDMLFSPLISLEQYQTSIFDTEKKN”, the “soluble on expression in E. coli” value was “not soluble”.

Regarding “MKIVIAPDSFKESLSALEVAEAVERGFRTVFPEAEYVKVPMADGGEGTVRSLVDATGGRIVETEVTGPLGEPVRAFFGLLGDGKTAVIEMAAASGLHLVPRDRRNPLVTTTRGTGELILAALDAGATHLIIGIGGSATNDGGAGMVQALGGRLLDEDGCDIGPGGGALADLHAIDLSGLDPRLGGVRIDVACDVDNPLTGPNGASAIFGPQKGATPDMVAVLDRNLAHYADVIRRDLGKQVGDIPGAGAAGGLGAGLLAFLPAELKRGVEIVIETVQLAERVKDADLVITGEGRIDGQTVFGKTPIGVAKTAKQFGVPVIGIAGSLGDDSAVVLDHGIDALFTIVPGVVPLEKALEQAEHYVTQTARHIASVYRLGQMKGTSSS”, the “soluble on expression in E. coli” value is reported as “not soluble”.

For “MKIVMKISEVRGEILLAAADADIVGKKFREKNLHIEVYPSFYGEVRVTDEMFISSMNICTIANLVGEYTIGVAIDAGFIEKDNILYIQKVPYAQYAKIFQ”, the “soluble on expression in E. coli” value is “soluble”.

On to “MKIVTFQGGLGNQLFQYVFYLWLDMRCDKDNIYGYYPKKGLRAHNGLEIEKVFEVKLPNSSLSTDLIVKSIKLINKIFKNRQYISTDGRLDVNGVLFEGFWQDKYFWEDVDIVLNFRWPLKLDVTNSFIMTKIQANNSISIHIRRGDYLLPKYRNIYGDICNEEYYQKAIEYILKCVDDPFFFVFSDDIDWAKSIINVSNVTFVNNNKGKDSYIDMFLMSLCHHNIIANSTFSWWAAQLNKHSDKIMIAPIRWFKSLFKDPNIFTESWIRILEHHHHHH”, for which the “soluble on expression in E. coli” value is given as “not soluble”.

Take “MKIVVAKNIGFCFGVERAIRTVEELLDEGKKVVTDGEIVHNKQVMEQLTKKGLKVSSEMTDGEVFVVRAHGIPKDRLEELKKIFPEVVDLTCPIVSQLFKTAQRYAKERKVIVFGKEDHPEMVALRGYAPAIVTKVPFKLEEKKVVFLSQTTSSLEEYKEFVAAMIRMNEFEEAVFLNTICPVTVNREREVEELSKICDLSIVVGGKHSSNTGKLFRIASKHSKTIWIESPDELPADVVKYGTVCVFSGTSTPNSLIENVVRKLKEMEGKRDGTI”: the “soluble on expression in E. coli” value is on record as “soluble”.

For the sequence “MKKALMICAAGTMIFVSYSAENTAPEVSKAVEDRITKDYDQDGVYSSYEKALRRAQGSIYVTLPEKRGEWYSTLDKIKEEEKELMPDEEARMRRKR”, the “soluble on expression in E. coli” value was “not soluble”.

For the sequence “MKKEFSAGGVLFKDGEVLLIKTPSNVWSFPKGNIEPGEKPEETAVREVWEETGVKGEILDYIGEIHYWYTLKGERIFKTVKYYLMKYKEGEPRPSWEVKDAKFFPIKEAKKLLKYKGDKEIFEKALKLKEKFKL”, the “soluble on expression in E. coli” value is “soluble”.
